From the supplement of paper PMC10567573

B1: ZNF449 (parent)
chain: QLTGHQRIHSGEEPHKCPECGKRF

Variants of: B1
Assay: protein stability index of a GFP-peptide fusion (GPS, HEK-293T) (PSI 1-6); higher = more stable
Settings: c terminus: a fixed tail appended
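Note: lentivirally expressed fusions sorted by FACS into six bins by GFP to DsRed ratio, PSI derived from sequencing read proportions per bin multiplied by bin number.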

Row | Variant | protein stability index
1 | QLTGHQRIHDGEEPHKCPECGKRF | 4.33
2 | QLTGHQRIHFGEEPHKCPECGKRF | 4.12
3 | QLTGHQRIHPGEEPHKCPECGKRF | 4.47
4 | QLTGHQRIHVGEEPHKCPECGKRF | 4.09
5 | QLTGHQRIHHGEEPHKCPECGKRF | 4.24
6 | QLTGHQRIHEGEEPHKCPECGKRF | 4.48
7 | QLTGHQRIHQGEEPHKCPECGKRF | 3.91
8 | QLTGHQRIHNGEEPHKCPECGKRF | 3.85
9 | QLTGHQRIHYGEEPHKCPECGKRF | 3.45
10 | QLTGHQRIHRGEEPHKCPECGKRF | 3.55
11 | QLTGHQRIHCGEEPHKCPECGKRF | 4.11
12 | QLTGHQRIHLGEEPHKCPECGKRF | 4.12
13 | QLTGHQRIHAGEEPHKCPECGKRF | 4.01
14 | QLTGHQRIHWGEEPHKCPECGKRF | 4.31
15 | QLTGHQRIHIGEEPHKCPECGKRF | 3.6
16 | QLTGHQRIHTGEEPHKCPECGKRF | 4.35
17 | QLTGHQRIHKGEEPHKCPECGKRF | 3.87
18 | QLTGHQRIHMGEEPHKCPECGKRF | 3.36
19 | QLTGCQRIHSGEEPHKCPECGKRF | 4.86
20 | QLTGDQRIHSGEEPHKCPECGKRF | 4.38
21 | QLTGYQRIHSGEEPHKCPECGKRF | 2.92
22 | QLTGLQRIHSGEEPHKCPECGKRF | 3.45
23 | QLTGVQRIHSGEEPHKCPECGKRF | 3.56
24 | QLTGSQRIHSGEEPHKCPECGKRF | 3.41

Row | Variant | protein stability index
25 | QLTGGQRIHSGEEPHKCPECGKRF | 4.45
26 | QLTGWQRIHSGEEPHKCPECGKRF | 2.89
27 | QLTGNQRIHSGEEPHKCPECGKRF | 3.73
28 | QLTGMQRIHSGEEPHKCPECGKRF | 3.67
29 | QLTGPQRIHSGEEPHKCPECGKRF | 4.48
30 | QLTGTQRIHSGEEPHKCPECGKRF | 4.08
31 | QLTGAQRIHSGEEPHKCPECGKRF | 3.17
32 | QLTGFQRIHSGEEPHKCPECGKRF | 2.94
33 | QLTGEQRIHSGEEPHKCPECGKRF | 4.56
34 | QLTGKQRIHSGEEPHKCPECGKRF | 4.46
35 | QLTGIQRIHSGEEPHKCPECGKRF | 4.18
36 | QLTGRQRIHSGEEPHKCPECGKRF | 4.03
37 | QLTGQQRIHSGEEPHKCPECGKRF | 3.65
38 | QTTGHQRIHSGEEPHKCPECGKRF | 4.64
39 | QWTGHQRIHSGEEPHKCPECGKRF | 4.53
40 | QSTGHQRIHSGEEPHKCPECGKRF | 4.6
41 | QMTGHQRIHSGEEPHKCPECGKRF | 4.86
42 | QITGHQRIHSGEEPHKCPECGKRF | 3.1
43 | QDTGHQRIHSGEEPHKCPECGKRF | 5.01
44 | QETGHQRIHSGEEPHKCPECGKRF | 4.71
45 | QHTGHQRIHSGEEPHKCPECGKRF | 4.58
46 | QQTGHQRIHSGEEPHKCPECGKRF | 5.16
47 | QRTGHQRIHSGEEPHKCPECGKRF | 4.33
48 | QATGHQRIHSGEEPHKCPECGKRF | 4.57

Row | Variant | protein stability index
49 | QCTGHQRIHSGEEPHKCPECGKRF | 5.34
50 | QNTGHQRIHSGEEPHKCPECGKRF | 4.59
51 | QGTGHQRIHSGEEPHKCPECGKRF | 4.77
52 | QKTGHQRIHSGEEPHKCPECGKRF | 4.8
53 | QVTGHQRIHSGEEPHKCPECGKRF | 4.65
54 | QYTGHQRIHSGEEPHKCPECGKRF | 3.66
55 | QFTGHQRIHSGEEPHKCPECGKRF | 3.89
56 | QPTGHQRIHSGEEPHKCPECGKRF | 4.89
57 | QLTEHQRIHSGEEPHKCPECGKRF | 4.38
58 | QLTFHQRIHSGEEPHKCPECGKRF | 3.5
59 | QLTAHQRIHSGEEPHKCPECGKRF | 4.34
60 | QLTIHQRIHSGEEPHKCPECGKRF | 3.41
61 | QLTCHQRIHSGEEPHKCPECGKRF | 4.29
62 | QLTKHQRIHSGEEPHKCPECGKRF | 3.48
63 | QLTMHQRIHSGEEPHKCPECGKRF | 4.18
64 | QLTLHQRIHSGEEPHKCPECGKRF | 3.83
65 | QLTNHQRIHSGEEPHKCPECGKRF | 3.42
66 | QLTSHQRIHSGEEPHKCPECGKRF | 4.57
67 | QLTHHQRIHSGEEPHKCPECGKRF | 3.94
68 | QLTDHQRIHSGEEPHKCPECGKRF | 4.09
69 | QLTVHQRIHSGEEPHKCPECGKRF | 3.52
70 | QLTWHQRIHSGEEPHKCPECGKRF | 2.78
71 | QLTRHQRIHSGEEPHKCPECGKRF | 3.69
72 | QLTQHQRIHSGEEPHKCPECGKRF | 4.7

Row | Variant | protein stability index
73 | QLTTHQRIHSGEEPHKCPECGKRF | 4.43
74 | QLTYHQRIHSGEEPHKCPECGKRF | 3.95
75 | QLTPHQRIHSGEEPHKCPECGKRF | 4.14
76 | QLTGHQRMHSGEEPHKCPECGKRF | 4.67
77 | QLTGHQRNHSGEEPHKCPECGKRF | 4.24
78 | QLTGHQRLHSGEEPHKCPECGKRF | 3.47
79 | QLTGHQRSHSGEEPHKCPECGKRF | 4.51
80 | QLTGHQRWHSGEEPHKCPECGKRF | 4.27
81 | QLTGHQRPHSGEEPHKCPECGKRF | 3.71
82 | QLTGHQRGHSGEEPHKCPECGKRF | 4.59
83 | QLTGHQRHHSGEEPHKCPECGKRF | 3.17
84 | QLTGHQRKHSGEEPHKCPECGKRF | 3.63
85 | QLTGHQRYHSGEEPHKCPECGKRF | 4.53
86 | QLTGHQRRHSGEEPHKCPECGKRF | 3.75
87 | QLTGHQREHSGEEPHKCPECGKRF | 4.5
88 | QLTGHQRCHSGEEPHKCPECGKRF | 4.75
89 | QLTGHQRFHSGEEPHKCPECGKRF | 3.96
90 | QLTGHQRAHSGEEPHKCPECGKRF | 4.54
91 | QLTGHQRTHSGEEPHKCPECGKRF | 4.42
92 | QLTGHQRQHSGEEPHKCPECGKRF | 4.23
93 | QLTGHQRVHSGEEPHKCPECGKRF | 3.63
94 | QLTGHQRDHSGEEPHKCPECGKRF | 4.71
